Patent US6896884B2, “Human chitinase, its recombinant production, its use for decomposing chitin, its use in therapy or prophylaxis against infection diseases” (Universiteit va Amsterdam, priority 1995, dated 2005)

Key:
[1] = hydrolysis of 4-methylumbelliferyl-chitobioside versus 4-methylumbelliferyl-chitotrioside; type: biochemical; conditions: 4-methylumbelliferyl substrates
Description: Purified 50 kDa and 39 kDa tissue chitotriosidases, and 50 kDa and 39 kDa chitozymes produced by recombinant DNA technology, are able to hydrolyse 4-methylumbelliferyl-chitotrioside and 4-methylumbelliferyl-chitobioside, the ratio of chitobioside activity to chitotrioside activity being about 0.7. Furthermore, p-nitrophenyl-chitotrioside and p-nitrophenyl-chitobioside are also efficiently hydrolyzed.

[2] = test system: cell wall suspension of Micrococcus lysodeikticus; assay: lysozyme activity towards bacterial cell wall suspension; type: biochemical
[3] = chitin azure degradation (release of soluble azure at 550 nm); type: biochemical; conditions: chitin azure 10 mg/ml, citrate/phosphate buffer pH 5.2; control chitinase from Serratia marcescens
Procedure: Chitin azure (Sigma) suspended in citrate/phosphate buffer (pH 5.2) at a final concentration of 10 mg/ml was used to monitor chitinase activity. Chitin degradation was detected spectrophotometrically at 550 nm by determination of release of soluble azure (18). Chitinase from Serratia marcescens (Sigma) was used as control. […] See for example ref.18.

[4] = type: physicochemical
[5] = type: in vitro ADME
Procedure: Production of the chitozymes via conventional technology in insect cells, plant cells, or vertebrate cells should be possible. Finally, transgenic animals could be envisioned as producers of large quantities of chitozymes in their milk for the applications described above. […] Successful proteolytic cleavage is only accomplished after denaturation of the enzyme, e.g. after heating in the presence of sodium dodecylsulphate. […] In analogy, chitotriosidase is stable at 37° C. in macrophage-conditioned medium that contains large quantities of various other secreted lytic enzymes.

[6] = test system: Mucor mucedo; assay: fungicidal effect on hyphal growth; type: cell-based; conditions: for effect on hyphal growth, microscopical analysis: enzyme solution in 0.15 M NaCl pipetted on hyphal tips
Procedure: To test whether human chitotriosidase can exert an antifungal action, a chitinous fungus (Mucor mucedo) was grown on plates (containing malt extract, peptone, glucose and agar) under a Cellophane membrane in order to keep the hyphae flat against the agar surface (see ref.16). Individual sectors were cut out and mounted on microscope slides. Purified chitozyme 50 and chitozyme 39 were dialysed against 0.15 M sodium chloride. Samples of enzyme-containing solutions, and 0.15 M NaCl were pipetted on the hyphal tips. […] Application of saline had no effect. Negative effects on hyphal growth were detectable using chitozyme solutions with a concentration of enzyme as little as 0.005 mg/ml.

[7] = test system: a variety of proteases; type: in vitro ADME
Procedure: Successful proteolytic cleavage is only accomplished after denaturation of the enzyme, e.g. after heating in the presence of sodium dodecylsulphate. […] In analogy, chitotriosidase is stable at 37° C. in macrophage-conditioned medium that contains large quantities of various other secreted lytic enzymes.

[8] = rat, in vivo
Description: A prerequisite for the intravenous application of the chitinase is insight in its clearance. In the blood stream the most predominant isozyme is the 50 kDa protein. In tissue predominantly a 39 kDa isozyme is encountered. This appears to be formed by uptake of 50 kDa protein followed by proteolytic cleavage to a 39 kDa form that is remarkably stable in the lysosomal environment. […] Clearance is not a very rapid process as monitored by the disappearance of activity of human chitotriosidase in the blood stream of intravenously injected rats, the half life being about one hour. Only minor amounts of chitotriosidase are daily excreted into the urine. It is conceivable that some enzyme is efficiently recaptured by proximal tube epithelial cells since kidney is found to be extremely rich in ‘lysosomally processed’ 39 kDa enzyme.

Substance: 50 kDa tissue chitotriosidase: 50 kDa chitotriosidase purified from Gaucher disease spleen
- ratio of chitobioside activity to chitotrioside activity [1]: about 0.7

Substance: chitotriosidase: human chitinase produced by macrophages, named chitotriosidase; isoform not specified at the place
- activity towards Micrococcus lysodeikticus cell wall suspension (lysozyme activity) [2]: No significant activity
- chitinase activity, related to hydrolysis of 4-methyl-umbelliferyl-chitotrioside [3]: comparable to that of the bacterial chitinase
- enzyme activity after spotting on filter paper ([4]; storage for several days at room temperature): enzyme activity is still recovered
- loss of enzyme activity upon storage and freeze-thaw ([4]; −20 or −70° C., repeated cycles of freezing and thawing): No loss of enzyme activity
- loss of enzyme activity on prolonged incubation [5]: does not result in detectable loss of enzyme activity
- stability in macrophage-conditioned medium [5]: stable
- effect on fungal growth ([6]; Mucor species): inhibited growth

Substance: chitozyme 39: recombinant human chitotriosidase isozyme of 39 kDa, encoded by chi.39 cDNA (SEQ ID NO:6), produced by transfected COS cells
- ratio of chitobioside activity to chitotrioside activity [1]: about 0.7
- stability against a variety of proteases [7]: extremely stable
- clearance from the circulation [8]: not immediately cleared
- effect on hyphal growth, microscopical analysis [6]: immediate cessation of hyphal growth

Substance: chitozyme 50: recombinant human chitotriosidase isozyme of 50 kDa, encoded by chi.50 cDNA (SEQ ID NO:4), produced by transfected COS cells
- ratio of chitobioside activity to chitotrioside activity [1]: about 0.7
- stability against a variety of proteases [7]: extremely stable
- clearance from the circulation [8]: not immediately cleared
- half life in the circulation, compared between isozymes [8]: somewhat longer than that of the 39 kDa enzyme
- effect on hyphal growth, microscopical analysis [6]: immediate cessation of hyphal growth

Substance: chitozyme: recombinant chitotriosidase, isozyme not specified at the place
- stability when added to cow milk [5]: completely stable

Substance: tissue chitotriosidase: chitotriosidase purified from Gaucher disease spleen, isoform not specified
- clearance from the circulation [8]: not immediately cleared
